Experiments:
[1] = target: T1, human FcRH2 (full-length, on SVT2 cells) (human, UniProt Q96LA5 20-508); test: flow cytometry on SVT2-FcRH2 cells, PE-labelled secondary
T1 construct: whole, on cells; also called SVT2-FcRH2
T1 sequence (looked up): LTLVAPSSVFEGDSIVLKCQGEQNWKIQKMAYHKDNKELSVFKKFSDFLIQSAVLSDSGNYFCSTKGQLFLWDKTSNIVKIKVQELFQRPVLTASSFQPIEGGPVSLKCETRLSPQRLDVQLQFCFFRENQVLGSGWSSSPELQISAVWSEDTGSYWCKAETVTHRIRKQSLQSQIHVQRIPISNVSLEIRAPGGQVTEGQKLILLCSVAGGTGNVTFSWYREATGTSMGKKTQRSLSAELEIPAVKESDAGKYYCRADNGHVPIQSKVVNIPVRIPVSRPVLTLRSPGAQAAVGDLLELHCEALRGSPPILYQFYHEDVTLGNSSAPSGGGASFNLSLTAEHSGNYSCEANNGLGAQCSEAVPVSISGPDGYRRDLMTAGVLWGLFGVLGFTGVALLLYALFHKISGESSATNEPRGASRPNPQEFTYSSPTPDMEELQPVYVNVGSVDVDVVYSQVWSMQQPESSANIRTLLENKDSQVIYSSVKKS
Protocol: (§1) Human FcRH5, cyno FcRH5, human FcRH1, FcRH2, FcRH3, and FcRH4 transfected mouse SVT2 cells were used to test binding and cross-reactivity of FcRH5 TDBs. The method was carried out as follows. Cultured SVT2 cells were lifted using non-enzyme cell dissociation buffer (Sigma, #C5914). 1×10⁵ cells were suspended in 100 μL and incubated with FcRH5 TDBs at 3 μg/ml. […] Cells were washed twice with FACS buffer before flow cytometry analysis was carried out on a FACSCalibur.

[2] = target: T2, human FcRH4 (full-length, on SVT2 cells) (human, UniProt Q96PJ5 20-515); test: flow cytometry on SVT2-FcRH4 cells, PE-labelled secondary
T2 construct: whole, on cells; also called SVT2-FcRH4
T2 sequence (looked up): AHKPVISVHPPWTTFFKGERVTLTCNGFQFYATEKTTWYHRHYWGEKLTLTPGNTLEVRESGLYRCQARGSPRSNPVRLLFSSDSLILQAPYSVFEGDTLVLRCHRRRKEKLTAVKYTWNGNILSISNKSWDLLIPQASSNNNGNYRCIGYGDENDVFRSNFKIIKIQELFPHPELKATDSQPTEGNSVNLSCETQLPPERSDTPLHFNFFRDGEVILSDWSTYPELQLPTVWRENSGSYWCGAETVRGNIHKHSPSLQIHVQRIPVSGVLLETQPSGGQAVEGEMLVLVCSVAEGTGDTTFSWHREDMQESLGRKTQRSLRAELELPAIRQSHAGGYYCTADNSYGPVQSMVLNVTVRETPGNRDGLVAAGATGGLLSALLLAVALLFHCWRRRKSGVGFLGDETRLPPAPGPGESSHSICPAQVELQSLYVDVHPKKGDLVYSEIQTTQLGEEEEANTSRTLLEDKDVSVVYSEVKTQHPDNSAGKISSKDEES
Protocol: as §1

[3] = target: T3, human FcRH1 (full-length, on SVT2 cells) (human, UniProt Q96LA6 17-429); test: flow cytometry on SVT2-FcRH1 cells, PE-labelled secondary
T3 construct: whole, on cells; also called SVT2-FcRH1
T3 sequence (looked up): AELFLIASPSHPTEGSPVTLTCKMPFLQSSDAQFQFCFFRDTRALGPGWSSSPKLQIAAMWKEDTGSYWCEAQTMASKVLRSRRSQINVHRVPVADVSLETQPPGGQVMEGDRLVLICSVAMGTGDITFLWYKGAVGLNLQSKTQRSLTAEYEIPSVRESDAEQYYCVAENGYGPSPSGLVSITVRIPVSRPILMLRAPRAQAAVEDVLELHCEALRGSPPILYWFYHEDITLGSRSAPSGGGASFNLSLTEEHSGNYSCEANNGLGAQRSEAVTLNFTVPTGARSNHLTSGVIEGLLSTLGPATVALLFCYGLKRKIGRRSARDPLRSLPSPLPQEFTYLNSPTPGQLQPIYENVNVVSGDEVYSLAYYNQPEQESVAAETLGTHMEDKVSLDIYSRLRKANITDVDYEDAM
Protocol: as §1

Measured: binding result

B1: 1G7.v85/38E4.v1 TDB (bispecific antibody, V domains shown)
VH 1: EVQLVESGPGLVKPSETLSLTCTVSGFSLTRFGVHWVRQPPGKGLEWLGVIWRGGSTDYNAAFVSRLTISKDNSKNQVSLKLSSVTAADTAVYYCSNHYYGSSDYALDNWGQGTLVTVSS
VL 1: DIQMTQSPSSLSASVGDRVTITCKASQDVRNLVVWFQQKPGKAPKLLIYSGSYRYSGVPSRFSGSGSGTDFTLTISSLQPEDFATYYCQQHYSPPYTFGQGTKVEIK
VH 2: EVQLVQSGAEVKKPGASVKVSCKASGFTFTSYYIHWVRQAPGQGLEWIGWIYPENDNTKYNEKFKDRVTITADTSTSTAYLELSSLRSEDTAVYYCARDGYSRYYFDYWGQGTLVTVSS
VL 2: DIVMTQSPDSLAVSLGERATINCKSSQSLLNSRTRKNYLAWYQQKPGQSPKLLIYWTSTRKSGVPDRFSGSGSGTDFTLTISSLQAEDVAVYYCKQSFILRTFGQGTKVEIK
notes: knob-into-hole TDB; also called 1G7.v85 TDB; 1G7.v85 (TDB format)
no binding: [1] | [2] | [3]
